“And” between values parts separate entries of the source, which are not always exact repeats. Equal entries are not always repeated.
B1: Drosophila LC8 (natural protein)
chain: MSDRKAVIKNADMSEEMQQDAVDCATQALEKYNIEKDIAAYIKKEFDKKYNPTWHCIVGRNFGSYVTHETRHFIYFYLGQVAILLFKSG
notes: LC8 hub protein (dynein light chain LC8) of Drosophila; folds as a homodimer; tag cleaved by TEV protease; also called LC8 dimer; source: E. coli Rosetta (DE3), purified (TALON, anion exchange, Superdex 75 gel filtration)
B3: Drosophila ASCIZ QT2–4 (residues 271–341) (domain or fragment, UniProt Q9VZU1 271-341, looked up)
chain: EVLAPLLRDIETQTPDTRGDIGTMTDDFPEEQEPVAVGSHFHAYSETEPMFDLQTSAHMYTQTCDDLFEEL
notes: also called wildtype QT2–4; intact QT2–4 construct; source: E. coli Rosetta (DE3), purified under denaturing conditions (TALON, anion exchange, gel filtration)

Tests used:
[1] = biological target: QT2,3 (QT2–4 double-site variant, motifs QT2 and QT3 intact) (Drosophila) (UniProt Q9VZU1); experiment: ITC; LC8 (400–500 µM) in the syringe titrated into QT variant (20–50 µM) in the cell; 25 °C; 50 mM sodium phosphate, 50 mM NaCl, 1 mM sodium azide, 5 mM β-mercaptoethanol, pH 7.5; single set of sites fit, for double-site variants also sequential binding sites (SBS) and two sets of sites (TSS) fits
[2] = biological target: QT3,4 (QT2–4 double-site variant, motifs QT3 and QT4 intact) (Drosophila) (UniProt Q9VZU1); experiment: as above
[3] = biological target: QT2,3 (QT2–4 double-site variant, motifs QT2 and QT3 intact) (Drosophila) (UniProt Q9VZU1); experiment: native MS; native ESI-MS; LC8 mixed with double-site QT variant at 2:1 LC8:QT, overnight at 4 °C; 25 µM total protein and dilutions to 500 nM; 200 mM ammonium acetate, pH 7.4; conditions: scale: LC8 chains per variant chain
[4] = biological target: QT2,4 (QT2–4 double-site variant, motifs QT2 and QT4 intact) (Drosophila) (UniProt Q9VZU1); experiment: as above; conditions: scale: LC8 chains per variant chain
[5] = biological target: QT3,4 (QT2–4 double-site variant, motifs QT3 and QT4 intact) (Drosophila) (UniProt Q9VZU1); experiment: as above; conditions: scale: LC8 chains per variant chain
[6] = biological target: QT4 (QT2–4 single-site variant, only motif QT4 intact) (Drosophila) (UniProt Q9VZU1); experiment: ITC; LC8 (400–500 µM) in the syringe titrated into QT variant (20–50 µM) in the cell; 25 °C; 50 mM sodium phosphate, 50 mM NaCl, 1 mM sodium azide, 5 mM β-mercaptoethanol, pH 7.5; single set of sites fit, for double-site variants also sequential binding sites (SBS) and two sets of sites (TSS) fits
[7] = biological target: QT2 (QT2–4 single-site variant, only motif QT2 intact) (Drosophila) (UniProt Q9VZU1); experiment: as above
[8] = biological target: QT2,4 (QT2–4 double-site variant, motifs QT2 and QT4 intact) (Drosophila) (UniProt Q9VZU1); experiment: as above
[9] = biological target: B3; experiment: SEC-MALS; 90 µM QT2–4 or QT4–6 mixed with 300 µM LC8 (1:3.3); Superdex200 10/300 GL, room temperature; 50 mM sodium phosphate, 0.4 M NaCl, 1 mM NaN3, 5 mM β-mercaptoethanol, pH 7.5; conditions: both partners purified
[10] = biological target: the molecule itself; experiment: native MS; native ESI-MS of the individual proteins (25 µM; dilution series); 200 mM ammonium acetate, pH 7.4
Drosophila LC8 [11] = biological target: B1; experiment: ITC; LC8 (400–500 µM) in the syringe titrated into QT variant (20–50 µM) in the cell; 25 °C; 50 mM sodium phosphate, 50 mM NaCl, 1 mM sodium azide, 5 mM β-mercaptoethanol, pH 7.5; single set of sites fit, for double-site variants also sequential binding sites (SBS) and two sets of sites (TSS) fits; conditions: both partners purified
Drosophila LC8 [12] = biological target: B1; experiment: negative-stain electron microscopy; images of a QT2–4/LC8 mixture; strings of LC8 dimers counted in 50 images; conditions: both partners purified

Drosophila LC8 (from UniProt Q24117 1-89) (natural protein)
fold stabilisation of the stronger site (QT2) against its single-site variant, two sets of sites fit [1]: 7 fold | fold stabilisation of the weaker site (QT3) against its single-site variant, two sets of sites fit [1]: 2 fold | N of site QT3, two sets of sites fit [2]: 0.2 | stoichiometry N [3]: 2 (2×) and 4 and 3 | stoichiometry N [4]: 2 (2×) and 4 and 3 | stoichiometry N [5]: 2 (2×) and 4 and 3

B1
Kd [6]: 15 µM | dH [6]: -16.1 kcal/mol | Kd [7]: 9.3 µM | dH [7]: -10.7 kcal/mol | N of site QT4, two sets of sites fit [8]: 0.6 | fold increase in affinity of site QT4 against the single-site variant QT4, sequential binding sites fit [8]: 5 fold | Kd of the second (weaker) site, QT3, sequential binding sites fit [2]: 40 µM | Kd of the second (weaker) site, QT3, two sets of sites fit [2]: 25.7 µM | stoichiometry N [9]: 1 LC8 chains per QT2–4 chain (2 QT2–4 chains, 2 LC8 chains) | stoichiometry N [10]: 2

B2: QT3 (QT2–4 single-site variant, only motif QT3 intact) (domain or fragment)
chain: EVLAPLLRDIEAAAPDTRGDIGTMTDDFPEEQEPVAVGSHFHAYSETEPMFDLQTSAHMYAAACDDLFEEL
modifications: Anchor positions are not printed. They were deduced from 8-residue motifs ending in the anchor, linkers of 3 and 30 residues, and 9 residues after QT4; the wild-type letters must match the entry …
Kd (Drosophila LC8 [11]): 36 µM

B3
binding result (Drosophila LC8 [12]): binds

From article PMC10046861, “Linker Length Drives Heterogeneity of Multivalent Complexes of Hub Protein LC8 and Transcription Factor ASCIZ” (Biomolecules, 2023)
